Assays:
human FcRn = target: T1, human FcRn (human, UniProt P55899 24-290; P61769 21-119); test: KD of 04H1637-G1m/04L1610-lam1 divided by KD of this antibody; SPR pH 6.0
T1 construct: Prepared by the method of WO 2010/107110; also called hFcRn
Procedure: The interaction between the generated antibodies and human FcRn was analyzed by the following method using Biacore T200. 50 mM Na-Phosphate, 150 mM NaCl, 0.05% Tween20 (pH 6.0) was used as the running buffer, and the assay was performed at 25° C. For the sensor chip, Series S SA (GE Healthcare) chips onto which CaptureSelect Human Fab-lambda Kinetics Biotin Conjugate (Thermo Fisher Scientific) was immobilized were used. The antibodies of interest were captured onto these chips and FcRn diluted in the running buffer was allowed to interact with them. Chips were regenerated with 10 mM Glycine-HCl (pH 1.5) and 25 mM NaOH, and assay was performed by repeatedly capturing antibodies. The dissociation constant for FcRn of each antibody was calculated using the steady state model, using Biacore T200 Evaluation Software 2.0.
“Relative value to KD between G1m and hFcRn” and “Relative value to KD between G1m and hFcγRs” are values obtained by dividing the KD value of 04H1637-G1m/04L1610-lam1 for hFcRn and for each FcγR by the KD value of each variant, respectively. “Relative binding amount” indicates the value obtained by dividing the binding amount of each variant to FcγRIIb by the binding amount of 04H1637-G1m/04L1610-lam1. […] It was shown that all of the generated heterodimerized antibodies had enhanced binding to FcγRIIa and FcγRIIIa as compared with 04H1637-G1m/04L1610-lam1 which has the constant region of native human IgG1. Furthermore, 04H1637-Kn462/04L1610-lam1//04H1637-H1441/04L1610-lam1, 04H1637-Kn462/04L1610-lam1//04H1637-H1445/04L1610-lam1, and 04H1637-Kn461/04L1610-lam1//04H1637-H1443/04L1610-lam1 were all shown to have enhanced binding to FcγRIIa compared to 04H1637-Kn125/04L1610-lam1//04H1637-H1076/04L1610-lam 1 which has the Fc region variant reported in WO 2013/002362.

[1] = target: T2, human FcγRIIb extracellular domain, His-tagged (human, UniProt P31994 43-217); test: SPR Biacore T200, 25C, pH 7.4; FcγRIIb at 1000 nM, corrected by captured antibody
T2 construct: extracellular domain; also called hFcγR IIb
T2 sequence (looked up): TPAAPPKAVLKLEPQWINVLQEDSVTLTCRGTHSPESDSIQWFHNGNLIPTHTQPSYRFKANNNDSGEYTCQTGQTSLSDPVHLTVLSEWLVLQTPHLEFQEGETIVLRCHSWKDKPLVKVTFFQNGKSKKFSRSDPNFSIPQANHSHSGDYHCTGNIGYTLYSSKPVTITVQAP
Procedure: (§1) The interaction between the generated antibodies and human FcγRs was analyzed by the following method using Biacore T200. 50 mM Na-Phosphate, 150 mM NaCl, 0.05% Tween20 (pH 7.4) was used as the running buffer, and the assay was performed at 25° C. For the sensor chips, Series S SA (GE Healthcare) chips onto which CaptureSelect Human Fab-lambda Kinetics Biotin Conjugate (Thermo Fisher Scientific) was immobilized were used. The antibodies of interest were captured onto these chips and each FcγR diluted in the running buffer was allowed to interact with them. Chips were regenerated with 10 mM Glycine-HCl (pH 1.5) and 25 mM NaOH, and assay was performed by repeatedly capturing antibodies. The dissociation constants KD (mol/L) for FcγRs of each antibody were calculated using Biacore T200 Evaluation Software 2.0, using the 1:1 Langmuir binding model for FcγRIa and FcγRIIIa and the steady state affinity model for FcγRIIa. For FcγRIIb, the binding amount of FcγRIIb per unit amount of antibody was calculated by correcting the binding amount of FcγRIIb obtained from the sensorgram obtained by the measurement with the amount of antibody captured onto the chip surface.

[2] = target: T3, human FcγRIIa, type R, extracellular domain, His-tagged (human, UniProt P12318 34-217); test: KD of 04H1637-G1m/04L1610-lam1 divided by KD of this antibody; SPR pH 7.4
T3 construct: extracellular domain; also called hFcγR IIa R
T3 sequence (looked up): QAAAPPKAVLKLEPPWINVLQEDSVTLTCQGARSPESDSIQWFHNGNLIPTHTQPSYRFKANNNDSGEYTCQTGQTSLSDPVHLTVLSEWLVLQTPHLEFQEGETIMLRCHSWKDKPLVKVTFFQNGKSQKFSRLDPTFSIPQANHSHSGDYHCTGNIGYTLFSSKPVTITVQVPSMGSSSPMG
Procedure: as §1
(§2) “Relative value to KD between G1m and hFcRn” and “Relative value to KD between G1m and hFcγRs” are values obtained by dividing the KD value of 04H1637-G1m/04L1610-lam1 for hFcRn and for each FcγR by the KD value of each variant, respectively. “Relative binding amount” indicates the value obtained by dividing the binding amount of each variant to FcγRIIb by the binding amount of 04H1637-G1m/04L1610-lam1. […] It was shown that all of the generated heterodimerized antibodies had enhanced binding to FcγRIIa and FcγRIIIa as compared with 04H1637-G1m/04L1610-lam1 which has the constant region of native human IgG1.

[3] = target: T4, human FcγRIIIa, allotype F158, extracellular domain, His-tagged (human, UniProt P08637 17-208); test: as above
T4 construct: extracellular domain; also called hFcγR IIIa F
Procedure: as §1, §2

[4] = target: T5, human FcγRIa extracellular domain, His-tagged (human, UniProt P12314 16-292); test: as above
T5 construct: also called hFcγR Ia
Procedure: as §1, §2

[5] = target: T6, human FcγRIIa, type H, extracellular domain, His-tagged (human, UniProt P12318 34-217); test: as above
T6 construct: extracellular domain; also called hFcγR IIa H
T6 sequence (looked up): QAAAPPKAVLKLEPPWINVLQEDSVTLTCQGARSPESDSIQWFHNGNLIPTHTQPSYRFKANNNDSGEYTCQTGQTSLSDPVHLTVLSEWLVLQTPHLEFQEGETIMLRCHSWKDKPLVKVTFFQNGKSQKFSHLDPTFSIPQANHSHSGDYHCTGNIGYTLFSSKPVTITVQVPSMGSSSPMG
Procedure: as §1, §2

[6] = target: T7, human FcγRIIIa, allotype V158, extracellular domain, His-tagged (human, UniProt P08637 17-208); test: as above
T7 construct: extracellular domain; also called hFcγR IIIa V
Procedure: as §1, §2

[7] = target: T2, human FcγRIIb extracellular domain, …; test: binding amount of this antibody divided by that of 04H1637-G1m/04L1610-lam1; SPR pH 7.4
Procedure: as §1, §2

T4 sequence (P08637 17-208): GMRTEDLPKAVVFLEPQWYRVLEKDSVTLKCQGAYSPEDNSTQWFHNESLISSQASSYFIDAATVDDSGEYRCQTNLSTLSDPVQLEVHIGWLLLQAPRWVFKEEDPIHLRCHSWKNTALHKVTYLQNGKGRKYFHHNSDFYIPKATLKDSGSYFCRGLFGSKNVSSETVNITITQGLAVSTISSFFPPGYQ
T5 sequence (P12314 16-292): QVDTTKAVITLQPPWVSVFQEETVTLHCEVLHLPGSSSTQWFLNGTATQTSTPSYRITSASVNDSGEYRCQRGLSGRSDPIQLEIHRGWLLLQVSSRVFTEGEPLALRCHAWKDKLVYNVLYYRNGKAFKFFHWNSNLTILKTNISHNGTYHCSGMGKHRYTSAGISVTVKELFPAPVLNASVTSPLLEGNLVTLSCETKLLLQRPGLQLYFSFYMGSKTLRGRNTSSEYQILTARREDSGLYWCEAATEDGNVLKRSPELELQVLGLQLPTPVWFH
T7 sequence (P08637 17-208 F176V): as the sequence (P08637 17-208) above, with F160V counted along it
T1 sequence (P55899 24-290 limits assumed, chain 1 of 2): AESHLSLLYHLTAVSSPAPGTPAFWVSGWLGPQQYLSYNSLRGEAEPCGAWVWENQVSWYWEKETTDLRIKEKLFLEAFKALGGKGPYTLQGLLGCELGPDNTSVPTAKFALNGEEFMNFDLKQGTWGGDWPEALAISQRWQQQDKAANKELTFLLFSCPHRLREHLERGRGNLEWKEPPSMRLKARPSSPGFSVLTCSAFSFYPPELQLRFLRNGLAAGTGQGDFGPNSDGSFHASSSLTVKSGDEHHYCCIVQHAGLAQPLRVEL
T1 sequence (P61769 21-119 limits assumed, chain 2 of 2): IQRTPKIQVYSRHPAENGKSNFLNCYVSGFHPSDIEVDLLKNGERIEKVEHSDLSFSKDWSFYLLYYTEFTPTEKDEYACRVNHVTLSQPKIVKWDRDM

Row | Binder | Relative value to KD between G1m and hFcRn (human FcRn) [ratio] | Binding amount [1] | Relative value to KD between G1m and hFcγRs [2] [ratio] | Relative value to KD between G1m and hFcγRs [3] [ratio] | Relative value to KD between G1m and hFcγRs [4] [ratio] | Relative value to KD between G1m and hFcγRs [5] [ratio] | Relative value to KD between G1m and hFcγRs [6] [ratio] | Relative binding amount [7] [ratio]
1 | 04H1654-KT461/04L1612-lam1//04H1656-HT443/04L1612-lam1 (antibody, human IgG1, lambda, Heterodimerized IgG1 (IGHG1*03) Fc variant) heavy 1: QVQLVESGGGVVQPGGSLRLSCAASGFTFSSKTMNWVRQAPGKGLEWVSSISTQSHYIYYARSVRGRFTISRDNAKNSLYLQMNSLRAEDTAVYYCARYGKREDMLWVFDYWGQGTLVTVSSASTKGPSVFPLAPSSKSTSGGTAALGCLVKDYFPEPVTVSWNSGALTSGVHTFPAVLQSSGLYSLSSVVTVPSSSLGTQTYICNVNHKPSNTKVDKRVEPKSCDKTHTCPPCPAPEFQWGPMVFLFPPKPKDVLMISRTPEVTCVVVDVSDEEPEVKFNWYVDGVEVHNAKTKPREEQYNATYRVVSVLPVLHQDWLNGKEYKCKVSNDALPAPEEKTISKAKGQPREPQVYTLPPSRKEMTKNQVSLTCLVKGFYPSDIAVEWESNGQPENNYKTTPPVLDSDGSFFLYSKLTVDKSRWQQGNVFSCSVMHEALHNHYTQKSLSLSP heavy 2: QVQLVESGGGVVQPGGSLRLSCAASGFTFSSKTMNWVRQAPGKGLEWVSSISTQSHYIYYAESVRGRFTISRDNAKNSLYLQMNSLRAEDTAVYYCARYGAREDMLWVFDYWGQGTLVTVSSASTKGPSVFPLAPSSKSTSGGTAALGCLVKDYFPEPVTVSWNSGALTSGVHTFPAVLQSSGLYSLSSVVTVPSSSLGTQTYICNVNHKPSNTKVDKRVEPKSCDKTHTCPPCPAPELLAGPSVFLFPPKPKDVLMISRTPEVTCVVVDVSHEEPEVKFNWYVDGVEVHNAKTKPREEQYNATYRVVSVLPVLHQDWLNGKEYKCKVSNDALPAPEEETISKAKGQPREPQVYTLPPSREEMTKNQVSLTCLVKGFYPSDIAVEWESNGQPENNYKTTPPVLDSDGSFFLYSKLTVDKSRWQQGNVFSCSVMHEALHNHYTQESLSLSP light: QSALTQPPSASGSPGQSVTISCEGPSTGVGDYTYVHWYQQHPGKAPKLMIYFTSKKPSGVPDRFSGSKSGNTASLTVSGLQAEDEADYYCQTYAAPLGPMFGGGTKLTVLGQPKAAPSVTLFPPSSEELQANKATLVCLISDFYPGAVTVAWKADSSPVKAGVETTTPSKQSNNKYAASSYLSLTPEQWKSHRSYSCQVTHEGSTVEKTVAPTECS | 0.8 | 0.025 RU per RU of captured antibody | 8.2 | 537 | 1.3 | 7.1 | 159 | 3.1
2 | 04H1654-KT462/04L1612-lam1//04H1656-HT445/04L1612-lam1 (antibody, human IgG1, lambda, Heterodimerized IgG1 (IGHG1*03) Fc variant) heavy 1: QVQLVESGGGVVQPGGSLRLSCAASGFTFSSKTMNWVRQAPGKGLEWVSSISTQSHYIYYARSVRGRFTISRDNAKNSLYLQMNSLRAEDTAVYYCARYGKREDMLWVFDYWGQGTLVTVSSASTKGPSVFPLAPSSKSTSGGTAALGCLVKDYFPEPVTVSWNSGALTSGVHTFPAVLQSSGLYSLSSVVTVPSSSLGTQTYICNVNHKPSNTKVDKRVEPKSCDKTHTCPPCPAPEFQWGPMVFLFPPKPKDVLMISRTPEVTCVVVDVSDEEPEVKFNWYVDGVEVHNAKTKPREEQYNATYRVVSVLPVLHQDWLNGKEYKCKVSNDALPAPIEKTISKAKGQPREPQVYTLPPSRKEMTKNQVSLTCLVKGFYPSDIAVEWESNGQPENNYKTTPPVLDSDGSFFLYSKLTVDKSRWQQGNVFSCSVMHEALHNHYTQKSLSLSP heavy 2: QVQLVESGGGVVQPGGSLRLSCAASGFTFSSKTMNWVRQAPGKGLEWVSSISTQSHYIYYAESVRGRFTISRDNAKNSLYLQMNSLRAEDTAVYYCARYGAREDMLWVFDYWGQGTLVTVSSASTKGPSVFPLAPSSKSTSGGTAALGCLVKDYFPEPVTVSWNSGALTSGVHTFPAVLQSSGLYSLSSVVTVPSSSLGTQTYICNVNHKPSNTKVDKRVEPKSCDKTHTCPPCPAPELLAGPSVFLFPPKPKDVLMISRTPEVTCVVVDVSHEEPEVKFNWYVDGVEVHNAKTKPREEQYNATYRVVSVLPVLHQDWLNGKEYKCKVSNDALPKPDEETISKAKGQPREPQVYTLPPSREEMTKNQVSLTCLVKGFYPSDIAVEWESNGQPENNYKTTPPVLDSDGSFFLYSKLTVDKSRWQQGNVFSCSVMHEALHNHYTQESLSLSP light: QSALTQPPSASGSPGQSVTISCEGPSTGVGDYTYVHWYQQHPGKAPKLMIYFTSKKPSGVPDRFSGSKSGNTASLTVSGLQAEDEADYYCQTYAAPLGPMFGGGTKLTVLGQPKAAPSVTLFPPSSEELQANKATLVCLISDFYPGAVTVAWKADSSPVKAGVETTTPSKQSNNKYAASSYLSLTPEQWKSHRSYSCQVTHEGSTVEKTVAPTECS | 0.8 | 0.028 RU per RU of captured antibody | 14.2 | 408 | 1.2 | 16.1 | 106 | 3.4
